The values below come from patent publication US20070259402.

Series [1] concerns the target N297A version of FIX-Fc retaining the propeptide.
The target of series [2] is proFIX-Fc (FIX-Fc retaining the FIX propeptide; dimer or monomer form not given).
Series [3] addresses proFIX-Fc monomer-dimer hybrid (FIX-Fc monomer retaining the propeptide).

B1: PC7-SOL (soluble form of PC7, amino acids 1-663) (protein)
chain: LAGTGGPDGQGTGGPSWAVHLESLEGDGEEETLEQQADALAQAAGLVNAGRIGELQGHYLFVQPAGHRPALEVEAIRQQVEAVLAGHEAVRWHSEQRLLRRAKRSVHFNDPKYPQQWHLNNRRSPGRDINVTGVWERNVTGRGVTVVVVDDGVEHTIQDIAPNYSPEGSYDLNSNDPDPMPHPDVENGNHHGTRCAGEIAAVPNNSFCAVGVAYGSRIAGIRVLDGPLTDSMEAVAFNKHYQINDIYSCSWGPDDDGKTVDGPHQLGKAALQHGVIAGRQGFGSIFVVASGNGGQHNDNCNYDGYANSIYTVTIGAVDEEGRMPFYAEECASMLAVTFSGGDKMLRSIVTTDWDLQKGTGCTEGHTGTSAAAPLAAGMIALMLQVRPCLTWRDVQHIIVFTATRYEDRRAEWVTNEAGFSHSHQHGFGLLNAWRLVNAAKIWTSVPYLASYVSPVLKENKAIPQSPRSLEVLWNVSRMDLEMSGLKTLEHVAVTVSITHPRRGSLELKLFCPSGMMSLIGAPRSMDSDPNGFNDWTFSTVRCWGERARGTYRLVIRDVGDESFQVGILRQWQLTLYGSVWSAVDIRDRQRLLESAMSGKYLHDDFALPCPPGLKIPEEDGYTITPN
B1: the “Propeptide Processing (Western blotting), HEK, stable transfection” value in series [1] is given as “does not fully process”. In addition, in series [2], the “Propeptide Processing (Western blotting), CHO, stable transfection” value is reported as “does not fully process”; the “Propeptide Processing (Western blotting), CHO, transient transfection” value is “processes”; the “Propeptide Processing (Western blotting), HEK, transient transfection” value is on record as “does not fully process”; the “peptide mapping (tryptic digest, LC/MS) for the propeptide indicator peptide (PIP), CHO stable line” value is on record as “ProFIX-Fc was also found in CHO FIX-Fc protein that was cotransfected with PC7, although possibly at lower levels as indicated in the UV trace”.

B2: KEX2-SOL (soluble form of the yeast endoprotease KEX2, amino acids 1-675) (protein)
chain: LVSSQQIPLKDHTSRQYFAVESNETLSRLEEMHPNWKYEHDVRGLPNHYVFSKELLKLGKRSSLEELQGDNNDHILSVHDLFPRNDLFKRLPVPAPPMDSSLLPVKEAEDKLSINDPLFERQWHLVNPSFPGSDINVLDLWYNNITGAGVVAAIVDDGLDYENEDLKDNFCAEGSWDFNDNTNLPKPRLSDDYHGTRCAGEIAAKKGNNFCGVGVGYNAKISGIRILSGDITTEDEAASLIYGLDVNDIYSCSWGPADDGRHLQGPSDLVKKALVKGVTEGRDSKGAIYVFASGNGGTRGDNCNYDGYTNSIYSITIGAIDHKDLHPPYSEGCSAVMAVTYSSGSGEYIHSSDINGRCSNSHGGTSAAAPLAAGVYTLLLEANPNLTWRDVQYLSILSAVGLEKNADGDWRDSAMGKKYSHRYGFGKIDAHKLIEMSKTWENVNAQTWFYLPTLYVSQSTNSTEETLESVITISEKSLQDANFKRIEHVTVTVDIDTEIRGTTTVDLISPAGIISNLGVVRPRDVSSEGFKDWTFMSVAHWGENGVGDWKIKVKTTENGHRIDFHSWRLKLFGESIDSSKTETFVFGNDKEEVEPAATESTVSQYSASSTSISISATSTSSISIGVETSAIPQTTTASTDPDSDPNTPKKLSSPRQ
As to B2, the “propeptide processing, Fc and propeptide Western blots, HEK 293 transient transfection (FIG. 8 lane 4, N297A Fc)” value in series [1] is “FIX-Fc cotransfected with KEX2-SOL is not processed, as can be seen by the presence of propeptide in this material (lanes 3 and 4, bands present on both blots)”. Also, in series [2], the “Propeptide Processing (Western blotting), CHO, transient transfection” value is “processes (cryptic cleavage)” and the “Propeptide Processing (Western blotting), HEK, transient transfection” value is listed as “does not fully process”.

B3: human PC5 (PC5A), expressed from pSYN-PC5-003 (protein)
chain: RVYTNHWAVKIAGGFPEANRIASKYGFINIGQIGALKDYYHFYHSRTIKRSVISSRGTHSFISMEPKVEWIQQQVVKKRTKRDYDFSRAQSTYFNDPKWPSMWYMHCSDNTHPCQSDMNIEGAWKRGYTGKNIVVTILDDGIERTHPDLMQNYDALASCDVNGNDLDPMPRYDASNENKHGTRCAGEVAAAANNSHCTVGIAFNAKIGGVRMLDGDVTDMVEAKSVSFNPQHVHIYSASWGPDDDGKTVDGPAPLTRQAFENGVRMGRRGLGSVFVWASGNGGRSKDHCSCDGYTNSIYTISISSTAESGKKPWYLEECSSTLATTYSSGESYDKKIITTDLRQRCTDNHTGTSASAPMAAGIIALALEANPFLTWRDVQHVIVRTSRAGHLNANDWKTNAAGFKVSHLYGFGLMDAEAMVMEAEKWTTVPRQHVCVESTDRQIKTIRPNSAVRSIYKASGCSDNPNRHVNYLEHVVVRITITHPRRGDLAIYLTSPSGTRSQLLANRLFDHSMEGFKNWEFMTIHCWGERAAGDWVLEVYDTPSQLRNFKTPGKLKEWSLVLYGTSVQPYSPTNEFPKVERFRYSRVEDPTDDYGTEDYAGPCDPECSEVGCDGPGPDHCNDCLHYYYKLKNNTRICVSSCPPGHYHADKKRCRKCAPNCESCFGSHGDQCMSCKYGYFLNEETNSCVTHCPDGSYQDTKKNLCRKCSENCKTCTEFHNCTECRDGLSLQGSRCSVSCEDGRYFNGQDCQPCHRFCATCAGAGADGCINCTEGYFMEDGRCVQSCSISYYFDHSSENGYKSCKKCDISCLTCNGPGFKNCTSCPSGYLLDLGMCQMGAICKDATEESWAEGGFCMLVKKNNLCQRKVLQQLCCKTCTFQG
As for B3, in series [2], the “Propeptide Processing (Western blotting), CHO, stable transfection” value is recorded as “processes”; the “Propeptide Processing (Western blotting), CHO, transient transfection” value was “processes”; the “Propeptide Processing (Western blotting), HEK, stable transfection” value is “processes”; the “Propeptide Processing (Western blotting), HEK, transient transfection” value is “processes”. Moreover, in series [3], the “peptide mapping (tryptic digest, LC/MS) for the propeptide indicator peptide (PIP), HEK stable line” value is listed as “undetectable in purified FIX-Fc monomer cotransfected with PC5”.
